Experimental data as given in patent US20230331852A1 (OSE IMMUNOTHERAPEUTICS, published 2023).

T1: Fc-CLEC1 labelled with Alexa Fluor 488 (human, Alexa Fluor 488 label (sites not given))
T1 construct: also called Fc-CLEC1-A488; Alexa488-Fc-Clec-1
T1 chain: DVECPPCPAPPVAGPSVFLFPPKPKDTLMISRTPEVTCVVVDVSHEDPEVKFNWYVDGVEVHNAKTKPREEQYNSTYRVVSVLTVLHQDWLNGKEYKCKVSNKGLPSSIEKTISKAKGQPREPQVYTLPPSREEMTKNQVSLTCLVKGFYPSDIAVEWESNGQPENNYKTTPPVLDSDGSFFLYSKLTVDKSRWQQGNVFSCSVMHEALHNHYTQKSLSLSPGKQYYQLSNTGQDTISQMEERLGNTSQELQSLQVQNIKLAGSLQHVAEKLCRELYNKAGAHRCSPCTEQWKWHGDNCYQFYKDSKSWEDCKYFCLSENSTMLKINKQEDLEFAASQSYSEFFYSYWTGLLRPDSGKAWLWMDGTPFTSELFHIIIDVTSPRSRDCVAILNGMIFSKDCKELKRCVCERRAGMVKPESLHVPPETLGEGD

T2: human CLEC-1A expressed on the cell membrane (human, UniProt Q8NC01 1-280)
T2 construct: Endogenous on human U266 myeloma cells, on monocyte-derived TGFb-DC and macrophages; on CHO cells after transduction with a Clec-1 expressing lentivirus; also called U266 CLEC1; CLEC-1A on U266 cells
T2 sequence: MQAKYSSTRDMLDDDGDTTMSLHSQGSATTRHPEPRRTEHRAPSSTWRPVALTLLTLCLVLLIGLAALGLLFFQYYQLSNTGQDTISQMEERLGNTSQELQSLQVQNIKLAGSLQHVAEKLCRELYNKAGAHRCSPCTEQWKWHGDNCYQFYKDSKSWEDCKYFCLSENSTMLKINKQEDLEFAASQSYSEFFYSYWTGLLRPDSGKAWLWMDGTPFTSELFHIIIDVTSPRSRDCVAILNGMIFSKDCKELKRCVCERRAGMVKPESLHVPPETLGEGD

T3: recombinant human CLEC-1 protein with His Tag (#1704-CL R&D Systems) (human, UniProt Q8NC01 74-280)
T3 construct: Bought protein; also called His-CLEC1; His Clec-1; not shown: His tag
T3 sequence: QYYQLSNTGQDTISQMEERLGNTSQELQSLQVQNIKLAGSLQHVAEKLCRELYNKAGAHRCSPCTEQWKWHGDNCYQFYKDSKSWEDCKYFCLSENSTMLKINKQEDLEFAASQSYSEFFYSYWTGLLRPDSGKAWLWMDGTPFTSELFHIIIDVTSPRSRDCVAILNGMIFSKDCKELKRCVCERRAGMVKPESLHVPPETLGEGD


How the values were obtained:
[1] = target: T1, Fc-CLEC1 labelled with Alexa Fluor 488; assay: FACS competition: blocks Fc-CLEC1-A488 (20 nM) binding to CLEC-1 ligand on permeabilised Raji cells; read-out % + cells
Protocol: (§1) Methods. To measure competition on permeabilised Raji (CytoFix/cytoperm kit, BD Biosciences) which expressed CLEC1 ligand, Fc-CLEC1-labelled A488 which bound specifically to permeabilised Raji was used. To measure competition, Fc-CLEC1 labelled A488 at 10 nM or 20 nM was mixed with mouse anti-hCLEC1 at different concentrations for 15 min at RT then added on these cells for 30 min at 4° C. […] To measure competition on PMBC, we used human PBMC pre-treated by UV for 18 h to obtain apoptotic PBMC, which expressed CLEC1 ligand. Fc-CLEC1-labelled A488 bound specifically apoptotic UV-treated PBMC. To measure competition, Fc-CLEC1 labelled A488 at 10 nM was mixed with mouse anti-hCLEC1 at different concentrations for 15 min at RT then added on these cells for 30 min at 4° C.

[2] = target: T1, Fc-CLEC1 labelled with Alexa Fluor 488; assay: FACS competition: blocks Fc-CLEC1-A488 (10 nM) binding to CLEC-1 ligand on UV-treated PBMC; read-out % + cells
Protocol: as §1

[3] = target: T1, Fc-CLEC1 labelled with Alexa Fluor 488; assay: FACS competition: blocks Fc-CLEC1-A488 (20 nM) binding to CLEC-1 ligand on permeabilised Raji cells; read-out Mean
Protocol: as §1

[4] = target: T1, Fc-CLEC1 labelled with Alexa Fluor 488; assay: FACS competition: blocks Fc-CLEC1-A488 (10 nM) binding to CLEC-1 ligand on permeabilised Raji cells; read-out % + cells
Protocol: as §1

[5] = target: T2, human CLEC-1A expressed on the cell …; assay: flow cytometry on U266 cells; printed as ED50, read-out Mean
[6] = target: T1, Fc-CLEC1 labelled with Alexa Fluor 488; assay: FACS competition: blocks Fc-CLEC1-A488 (10 nM) binding to CLEC-1 ligand on UV-treated PBMC; read-out Mean
Protocol: as §1

[7] = target: T1, Fc-CLEC1 labelled with Alexa Fluor 488; assay: FACS competition: blocks Fc-CLEC1-A488 (10 nM) binding to CLEC-1 ligand on permeabilised Raji cells; read-out Mean
Protocol: as §1

[8] = target: T3, recombinant human CLEC-1 protein with …; assay: Blitz biolayer interferometry, His-CLEC1 on Ni-NTA biosensor, antibody at 20 ug/mL
Protocol: (§2) Analysis was performed with a BLItz System (Fortébio, #C22-2 No 61010-1, Molecular Devices, San José, USA).
(§3) The affinity of the anti-hCLEC1 antibodies, was measured with Blitz system (Forté Bio, C22-2 No 61010-1).

[9] = target: T2, human CLEC-1A expressed on the cell …; assay: flow cytometry on U266 cells; printed as ED50, read-out % + cells
[10] = target: T3, recombinant human CLEC-1 protein with …; assay: ELISA on immobilised human His-CLEC1 (column hm His Clec); given as ED50
Protocol: Method: The binding activity of the anti-hCLEC1 antibodies was assessed by ELISA (Enzyme-linked immunosorbent assay). […] A second ELISA assays was performed, like above, with immobilization of CLEC1-Fc (OSE Immunotherapeutics) at 2 μg/ml. A third ELISA assays was performed to see the cross-reactivity with mouse CLEC1. Like above, ELISA was made with immobilization of mouse Fc-CLEC1 (OSE Immunotherapeutics) at 2 μg/ml in carbonate buffer instead of His-Clec. Purified antibodies were added at different concentrations to measure binding. […] Control antibody is a commercial anti-CLEC-1A antibody.

[11] = target: T3, recombinant human CLEC-1 protein with …; assay: BLI (Blitz), CLEC1-His on Ni-NTA biosensor, antibody at 20 ug/mL; murine clone, FIG. 16
Protocol: as §2, §3

Row | Binder | IC50 [1] | IC50 [2] | IC50 [3] | IC50 [4] | EC50 [5] | IC50 [6] | IC50 [7] | Kd [8] | koff [8] | kon [8] | EC50 [9] | EC50 [10] | Kd [11]
1 | murine anti-hCLEC1 antibody 14H9-F3 (antibody, V domains shown, Mouse hybridoma antibody) VH: QVQLKESGPGLVAPSQSLSITCTISGFSLTTYGIHWVRQPPGKGLEWLVVIWSDGSTIYNSALKSRLSISKDNSKSQVFLKMNSLQTDDTAIYYCARHGGYYNYFDYWGQGTTLTVSS VL: DIQMNQSPSSLSASLGDTITITCHASQNINVWLSWYQQKPGNIPKLLIYKASNLHTGVPSRFSGSGSGTTFTLTIDSLQPEDIATYYCQQGQSYWTFGGGTKLEIK | 22000 ng/mL | 31 ng/mL | 2.5 µg/mL | 3.2 µg/mL | 0.072 µg/mL | 3.1 µg/mL | 0.84 µg/mL | 8.24 nM | 0.00074 s⁻¹ | 89800 M⁻¹ s⁻¹ | 0.0065 µg/mL | 0.157 µg/mL | 
2 | murine anti-hCLEC1 antibody 21B1-E10 (antibody, V domains shown, tied to the 21B1 variable domains by name) VH: QVQLKESGPGLVAPSQSLSITCTISGFSLTTYGIHWVRQPPGKGLEWLVVIWSDGSTIYNSALKSRLSISKDNSKSQVFLKMNSLQTDDTAIYYCARHGGYYNYFDYWGQGTTLTVSS VL: DIVMSQSPSSLAVSVGEKVTLTCKSTQNLFYSTNQKNYLAWYQQKPGQSPKLLIYWASTRESGVPDRFTGSGSGTDFTLTISSVKAEDPAVYYCQQYYTYPWTFGGGTKLEIK |  |  |  |  |  |  |  |  |  |  |  |  | ~1 nM
3 | murine anti-hCLEC1 antibody 5D1-A5 (antibody, V domains shown, Mouse hybridoma antibody) VH: QVQLKESGPGLVAPSQSLSITCTISGFSLTSYGVHWVRQPPGKGLEWLVVIWSDGSTIYNSALKSRLSISKDNSKSQVFLKMNSLQTDDTAMYYCARHGGYYNYFDYWGQGTTLTVSS VL: DIQMNQSPSSLSASLGDTITITCHASQNINVWLSWYQQKPGNIPKLLIYKASNLHTGVPSRFSGSGSGTGFTLTISSLQPEDIATYYCQQGQSYWTFGGGTKLEIK | 210 ng/mL | 130 ng/mL | 3.1 µg/mL | 12 µg/mL | 0.12 µg/mL | 3.8 µg/mL | 4.4 µg/mL | 16.1 nM | 0.00124 s⁻¹ | 76600 M⁻¹ s⁻¹ | 0.0064 µg/mL | 1.31 µg/mL | 
4 | murine anti-hCLEC1 antibody 6C5-A4 (antibody, V domains shown, Mouse hybridoma antibody) VH: QVQLQQSGPELVKPGASVKMSCKASGYTFTDYVISWVKQKTGQGLEWIGEIYPGSGNTYYNEKFKGKATLTADKSSSTAYIHLSSLTSEDSAVYFCAGGGSSHFDYWGQGTTLTVSS VL: not shown | 1500 ng/mL | 2000 ng/mL | 1.7 µg/mL | 19 µg/mL | 0.17 µg/mL | 2.2 µg/mL | 1.7 µg/mL | 14.7 nM | 0.000934 s⁻¹ | 63400 M⁻¹ s⁻¹ | 0.051 µg/mL | 0.012 µg/mL | 

The remaining binders from weak to strong by Kd [8], led by results:

Row | IC50 [1] | IC50 [2] | IC50 [3] | IC50 [4] | EC50 [5] | IC50 [6] | IC50 [7] | Kd [8] | koff [8] | kon [8] | EC50 [9] | EC50 [10] | Kd [11] | Binder
5 | 14000 ng/mL | 690 ng/mL | 3 µg/mL | 7.7 µg/mL | 0.59 µg/mL | 4.5 µg/mL | 1.3 µg/mL | 14 nM | 0.00101 s⁻¹ | 72200 M⁻¹ s⁻¹ | 0.074 µg/mL | 0.0466 µg/mL |  | murine anti-hCLEC1 antibody 15E3-G3 (antibody, V domains shown, Mouse hybridoma antibody) VH: QVQLQQSGPELVKPGASVKMSCKASGFTFTDYVIAWVKVRTGQGLEWIGEIYPGSGSIYYNEKFKGKATLTADKSSNTAYMQLSSLTSEDSAVYFCASSTVVAFDYWGQGTTLTVSS VL: EIVLTQSPTTLAASPGEKIIITCSDSSSISSNYLHWYQQKPGFSPKLLIYGTSNLASGVPARFSGSGSGTTYSLTIGTMEAEDVATYYCQQGSSIPRTFGGGTKLEIK
6 | 820 ng/mL | 790 ng/mL | 2.5 µg/mL | 11 µg/mL | 0.22 µg/mL | 2.8 µg/mL | 2.1 µg/mL | 5.72 nM | 0.000621 s⁻¹ | 109000 M⁻¹ s⁻¹ | 0.034 µg/mL | 0.0128 µg/mL |  | murine anti-hCLEC1 antibody 10F4-H2 (antibody, V domains shown, Mouse hybridoma antibody) VH: QVQLQQSGTELARPGASVKMSCKASGYIFTDYTIHWVKQRPGQGLEWVGYINPSSGYTNYNQKFKAKATLTADKSSSTAYMQLSSLTSEDSAVYYCTPMFRRSYFDYWGQGTTLTVSS VL: DAVMTQTPLSLPVSLGDQASISCRSSQSLENSNGNTYLNWYLQKPGQSPQLLIYRVSNRFSGVLDRFSGSGSGTDFTLKISRVEAEDLGVYFCLQVTHVPYTFGGGTKLEIK
7 | 700 ng/mL | 360 ng/mL | 0.72 µg/mL | 8 µg/mL | 0.033 µg/mL | 2.7 µg/mL | 1.5 µg/mL | 2.91 nM | 0.000787 s⁻¹ | 270000 M⁻¹ s⁻¹ | 0.0077 µg/mL | 0.00748 µg/mL | ~1 nM | murine anti-hCLEC1 antibody 11H11-G11 (antibody, V domains shown, Mouse hybridoma antibody) VH: QIHLVQSGPELKKPGETVKISCKASGYTFTNFGMNWVKQAPGKGLKWMGWINTNTGEPTYADDFKGRFAFSLETSASTAYLQINNLKNEDTATYFCARGAPAWFTYWGQGTLVTVSA VL: DIQMTQSPASLSASVGETVTITCRATENIYSYLAWYQQKQGKSPQFLVYNAKTLAEGMPSRFSGSGSGTQFSLKINILQPEDFGTYYCQHHFGTPLTFGAGTKLELK
